Results as given in the supplement of paper PMC10724198.
± gives the standard deviation of the averaged measurements.

Key:
Saccharomyces cerevisiae [1] = test: protein stability index of tFT-peptide fusion (C-terminal peptide) (PSI (0-1 scale)); higher = more stable (slower turnover); conditions: genetic background: wild type; temperature: 30 C
Saccharomyces cerevisiae [2] = test: as above
Description: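 MPS profiling in S. cerevisiae of the tFT-X12 degron library: putative degron peptides plus stable controls, 12 aa, fused to the C-terminus of a sfGFP-mCherry timer. Cells are FACS-sorted into 8 mCherry/sfGFP bins and deep-sequenced. PSI runs from 0 (unstable) to 1 (stable). Backgrounds are wild type, das1Δ and doa10Δ at 30 °C, and wild type, das1Δ, cdc34-1 and cdc53-1 at 37 °C; 2-3 technical replicates each.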

[3] = genetic background: cdc34-1, temperature: 37 C
[4] = genetic background: cdc53-1, temperature: 37 C
[5] = genetic background: das1 deletion, temperature: 30 C
[6] = genetic background: das1 deletion, temperature: 37 C
[7] = genetic background: doa10 deletion, temperature: 30 C
[8] = genetic background: wild type, temperature: 30 C
[9] = genetic background: wild type, temperature: 37 C
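Also: PSI is a weighted mean of sequencing reads over stability bins, variants kept only with over 10 reads, mCherry proximal and sfGFP distal, peptide attached via GGGS linker.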

Sequence	protein stability index (Saccharomyces cerevisiae [1])	protein stability index (Saccharomyces cerevisiae [2]; [3])	protein stability index (Saccharomyces cerevisiae [2]; [4])	protein stability index (Saccharomyces cerevisiae [2]; [5])	protein stability index (Saccharomyces cerevisiae [2]; [6])	protein stability index (Saccharomyces cerevisiae [2]; [7])	protein stability index (Saccharomyces cerevisiae [2]; [8])	protein stability index (Saccharomyces cerevisiae [2]; [9])
LLSFSQLGYFVL	0.212 ± 0.04	0.634 ± 0.056	0.716 ± 0.012	0.633 ± 0.034	0.738 ± 0.023	0.13 ± 0.0051	0.152 ± 0.039	0.335 ± 0.027
LLSGHFRLLLAF	0.136 ± 0.029	0.0523 ± 0.014	0.149 ± 0.007	0.178 ± 0.02	0.23 ± 0.013	0.0793 ± 0.0067	0.0945 ± 0.014	0.108 ± 0.02
LLVCLGYFLFLG	0.403 ± 0.0091	0.37 ± 0.025	0.372 ± 0.031	0.313 ± 0.024	0.484 ± 0.055	0.338 ± 0.0061	0.288 ± 0.051	0.453 ± 0.022
LNVEEGGGLENV	0.536 ± 0.1	0.698 ± 0.043	0.727 ± 0.023	0.631 ± 0.026	0.719 ± 0.024	0.661 ± 0.044	0.637 ± 0.044	0.699 ± 0.018
LPHPLPFCFSLY	0.515 ± 0.062	0.711 ± 0.024	0.7672 ± 0.0058	0.672 ± 0.0085	0.7781 ± 0.0021	0.4271 ± 0.0037	0.451 ± 0.025	0.6683 ± 0.0063
LPLLLFYLPIIW	0.464 ± 0.03	0.4647 ± 0.0038	0.479 ± 0.0079	0.401 ± 0.034	0.521 ± 0.0097	0.414 ± 0.0077	0.389 ± 0.034	0.4796 ± 0.0041
LPPFLSSLPSSP	0.704 ± 0.019	0.715 ± 0.027	0.769 ± 0.016	0.66 ± 0.017	0.7635 ± 0.0039	0.668 ± 0.031	0.663 ± 0.011	0.732 ± 0.013
LPPSPPAPLSRL	0.804 ± 0.066	0.906 ± 0.024	0.8918 ± 0.0015	0.81 ± 0.012	0.8616 ± 0.0061	0.804 ± 0.022	0.801 ± 0.019	0.8571 ± 0.005
LQIKSFTSQRLA	0.158 ± 0.021	0.509 ± 0.021	0.698 ± 0.0074	0.6421 ± 0.0063	0.72398 ± 0.0003	0.0758 ± 0.016	0.0902 ± 0.037	0.0965 ± 0.038
LRFMLLSFLVIL	0.234 ± 0.083	0.251 ± 0.021	0.207 ± 0.015	0.349 ± 0.034	0.429 ± 0.019	0.2402 ± 0.0023	0.176 ± 0.022	0.266 ± 0.01
LRFVCALGYCVW	0.471 ± 0.0098	0.577 ± 0.042	0.645 ± 0.019	0.485 ± 0.027	0.6011 ± 0.0042	0.443 ± 0.015	0.461 ± 0.029	0.574 ± 0.0089
LRNVPCLVFFWV	0.462 ± 0.048	0.5656 ± 0.0038	0.61 ± 0.025	0.439 ± 0.024	0.632 ± 0.011	0.334 ± 0.017	0.384 ± 0.03	0.631 ± 0.049
LRSVLGWGLFLA	0.325 ± 0.018	0.45 ± 0.033	0.494 ± 0.014	0.493 ± 0.027	0.621 ± 0.0097	0.236 ± 0.0088	0.208 ± 0.021	0.422 ± 0.0078
LSCFCLFCLSFC	0.0626 ± 0.033	0.634 ± 0.053	0.678 ± 0.026	0.518 ± 0.036	0.663 ± 0.027	0.517 ± 0.039	0.496 ± 0.015	0.669 ± 0.0017
LSFLALLLFFRI	0.4764 ± 0.0023	0.228 ± 0.035	0.22 ± 0.061	0.363 ± 0.04	0.44 ± 0.015	0.567 ± 0.017	0.372 ± 0.025	0.357 ± 0.019
LSGIILGWSVSG	0.676 ± 0.034	0.755 ± 0.047	0.76 ± 0.0077	0.6302 ± 0.0058	0.735 ± 0.047	0.6308 ± 0.005	0.645 ± 0.0062	0.7292 ± 0.003
LSLVYFAALFSF	0.4709 ± 0.0037	0.484 ± 0.042	0.529 ± 0.033	0.409 ± 0.019	0.53775 ± 0.00036	0.356 ± 0.025	0.377 ± 0.043	0.4858 ± 0.003
LSTPPLLPTPPS	0.7113 ± 0.0049	0.672 ± 0.029	0.7296 ± 0.0032	0.664 ± 0.012	0.7182 ± 0.0062	0.672 ± 0.029	0.669 ± 0.014	0.6988 ± 0.0048
LSVMKLFVMVGP	0.401 ± 0.039	0.442 ± 0.0094	0.493 ± 0.027	0.37 ± 0.026	0.5023 ± 0.0045	0.358 ± 0.0093	0.377 ± 0.029	0.479 ± 0.012
